One molecule from publication PMC5096685, “Characterization of CgHIFα-Like, a Novel bHLH-PAS Transcription Factor Family Member, and Its Role under Hypoxia Stress in the Pacific Oyster Crassostrea gigas” can be followed below.

In one series the target is T1, CgHIFα bHLH-PAS (Crassostrea gigas, UniProt B6ZGN4 1-356).
T1 sequence: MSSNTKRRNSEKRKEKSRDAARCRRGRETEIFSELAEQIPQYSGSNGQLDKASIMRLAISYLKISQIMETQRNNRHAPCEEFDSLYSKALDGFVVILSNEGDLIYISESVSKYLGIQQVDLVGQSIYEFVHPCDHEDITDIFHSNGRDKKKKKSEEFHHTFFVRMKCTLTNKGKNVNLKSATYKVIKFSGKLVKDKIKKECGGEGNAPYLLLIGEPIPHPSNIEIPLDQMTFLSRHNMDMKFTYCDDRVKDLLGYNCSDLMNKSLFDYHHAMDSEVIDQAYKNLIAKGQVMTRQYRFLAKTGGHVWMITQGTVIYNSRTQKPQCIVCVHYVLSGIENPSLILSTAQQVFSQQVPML
Put plainly: EMSA; no ARNT added; positive control; unlabeled Ew 200x competes; anti-His supershift; 10 mM Tris pH 7.5, 50 mM KCl, 1 mM DTT, 50 ng poly(dI-dC) in 20 uL, 20 min at room temperature. Conditions: protein: recombinant; tags: His (pET30a); label: biotin end label (probe). A general note: In EMSA bound probe runs differently from free probe, usually more slowly.

In series [1] the target is T2, CgHIFα-like bHLH-PAS (CgHIFαlike-His) (Crassostrea gigas, UniProt A0A167QPK5 1-385).
T2 sequence: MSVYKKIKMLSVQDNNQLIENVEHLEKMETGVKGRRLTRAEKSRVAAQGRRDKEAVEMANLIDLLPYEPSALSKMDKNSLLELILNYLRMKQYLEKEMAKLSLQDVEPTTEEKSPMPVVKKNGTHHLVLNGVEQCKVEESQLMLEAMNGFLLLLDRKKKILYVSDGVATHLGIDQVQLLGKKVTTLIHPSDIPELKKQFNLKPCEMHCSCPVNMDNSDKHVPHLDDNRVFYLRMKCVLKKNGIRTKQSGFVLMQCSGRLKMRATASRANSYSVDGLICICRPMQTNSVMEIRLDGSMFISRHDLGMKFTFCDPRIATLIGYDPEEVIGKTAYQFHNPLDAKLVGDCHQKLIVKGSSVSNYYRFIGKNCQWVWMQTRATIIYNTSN
The series is described as follows: EMSA; no ARNT added; 1 ug protein, 20 fmol probe, 50 ng poly(dI-dC); unlabeled Ew 200x competes; anti-His supershift; 10 mM Tris pH 7.5, 50 mM KCl, 1 mM DTT, 50 ng poly(dI-dC) in 20 uL, 20 min at room temperature. The note with it: protein: recombinant; tags: His (pET30a); label: biotin end label (probe).

B1: Ew (human EPO HRE probe) (dsDNA)
DNA 1: GCCCTACGTGCTGTCTCA
DNA 2: TGAGACAGCACGTAGGGC
Take B1: the binding result (with CgHIFα bHLH-PAS; in series [1]) was “binds” throughout.
